Laboratory results from patent US20110177071A1 (PERSEID THERAPEUTICS, published 2011).

T1: human CD86-murine Ig fusion protein (human)
T1 construct: Bought (Ancell #509-820); also called hCD86-mIg
T1 chain: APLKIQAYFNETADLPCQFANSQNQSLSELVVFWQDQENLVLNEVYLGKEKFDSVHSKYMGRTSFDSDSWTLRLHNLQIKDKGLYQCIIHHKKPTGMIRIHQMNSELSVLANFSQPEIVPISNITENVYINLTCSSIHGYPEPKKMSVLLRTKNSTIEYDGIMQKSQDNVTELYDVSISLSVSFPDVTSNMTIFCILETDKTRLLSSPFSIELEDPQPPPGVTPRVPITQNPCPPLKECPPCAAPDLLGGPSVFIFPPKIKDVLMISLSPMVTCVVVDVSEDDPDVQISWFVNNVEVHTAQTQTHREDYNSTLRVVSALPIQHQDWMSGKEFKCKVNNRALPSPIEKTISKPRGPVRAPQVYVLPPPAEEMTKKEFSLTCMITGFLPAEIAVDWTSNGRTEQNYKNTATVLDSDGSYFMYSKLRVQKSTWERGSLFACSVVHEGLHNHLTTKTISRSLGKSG

T2: human CD80-murine Ig fusion protein (human)
T2 construct: Bought (Ancell #510-820); also called hCD80-mIg; human CD80-murine IgG
T2 chain: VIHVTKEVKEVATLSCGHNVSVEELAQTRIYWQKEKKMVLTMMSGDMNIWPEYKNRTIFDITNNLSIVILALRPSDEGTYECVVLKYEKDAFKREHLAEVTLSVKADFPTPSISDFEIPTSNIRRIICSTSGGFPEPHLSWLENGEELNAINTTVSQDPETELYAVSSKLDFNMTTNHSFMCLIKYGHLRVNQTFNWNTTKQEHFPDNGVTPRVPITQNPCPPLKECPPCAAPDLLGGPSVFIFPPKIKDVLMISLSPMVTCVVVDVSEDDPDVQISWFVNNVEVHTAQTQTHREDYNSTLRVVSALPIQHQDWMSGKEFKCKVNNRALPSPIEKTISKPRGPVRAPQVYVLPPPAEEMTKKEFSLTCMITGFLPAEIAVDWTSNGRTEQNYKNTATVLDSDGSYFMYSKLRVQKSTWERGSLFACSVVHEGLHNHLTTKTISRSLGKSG


Experiments:
[1] = biological target: T1, human CD86-murine Ig fusion protein; assay: SPR Biacore, hCD86-mIg captured
Experimental: (§1) All Biacore™ analyses were performed on a Biacore™ 2000 system (GE Healthcare) at room temperature (RT, 25° C.). HBS-EP buffer (10 mM HEPES (pH 7.4), 150 mM NaCl, 3 mM EDTA, 0.005% surfactant P20) was used as the flow buffer for all experiments.
(§2) Rabbit anti-mouse IgG antibody (GE Healthcare, #BR-1005-14) was immobilized on CM5 sensor chips (GE Healthcare, #BR-1000-14) according to the manufacturer's protocol. Antibody was diluted to 30 μg/ml in immobilization buffer (10 mM sodium acetate, pH 5.0 (BR-1003-51)). At a flow rate of 5 μl/minute, sensor chip CM5 was activated with a 35 μl injection of a mixture of 1-Ethyl-3-[3-dimethylaminopropyl]carbodiimide hydrochloride (EDC) and N-hydroxysuccinimide (NHS) (made by mixing equal volumes of 11.5 mg/ml EDC and 75 mg/ml NHS) (GE Healthcare, #BR-1000-50), followed by a 35 μl injection of undiluted antibody. Un-reacted sites were quenched with 35 μl of 1M ethanolamine-HCL, pH 8.5 (GE Healthcare, #BR-1000-50). […] CTLA-4 ligands human CD80-murine Ig (hCD80-mIg) (Ancell, #510-820) or human CD86-murine Ig (hCD86-mIg) (Ancell, #509-820) were bound to antibody-coated sensor chips by injection of 10 μl or 16 μl, respectively, ligand solution (2 μg/ml protein in HBS-EP buffer [10 mM HEPES pH 7.4, 150 mM NaCl, 3 mM EDTA, 0.005% (v/v) surfactant P-20, GE Healthcare, #BR-1001-88]) at a flow rate of 10 μl/min.

[2] = biological target: T2, human CD80-murine Ig fusion protein; assay: SPR Biacore, hCD80-mIg captured
Experimental: as §1, §2

Binder	Binding Avidity (Relative to Orencia) [1] [fold]	Kd [1] [pM]	Binding Avidity (Relative to Orencia) [2] [fold]	Kd [2] [pM]
D3-66-IgG2 (Fc fusion) MHVAQPAVVLASSRGIASFVCEYASPGKANEVRVTVLRQADSQVTEVCAMTYMKGDELTFLDDPICTGTFSGNQVNLTIQGLRAMDTGLYICKVELMYPPPYYEGIGNGTQIYVIDPEPCPDSDERKCCVECPPCPAPPVAGPSVFLFPPKPKDTLMISRTPEVTCVVVDVSHEDPEVQFNWYVDGVEVHNAKTKPREEQFNSTFRVVSVLTVVHQDWLNGKEYKCKVSNKGLPAPIEKTISKTKGQPREPQVYTLPPSREEMTKNQVSLTCLVKGFYPSDIAVEWESNGQPENNYKTTPPMLDSDGSFFLYSKLTVDKSRWQQGNVFSCSVMHEALHNHYTQKSLSLSPG	> 40	< 131	> 2	< 439
D3-74-IgG2 (Fc fusion) MHVAQPAVVLASSRGIASFVCEYASPGKANEIRVTVLRQADSQVTEVCAMTYMKGNELTFLDDPICTGTFSGNQVNLTIQGLRAMDTGLYICKVELMYPPPYYEGIGNGTQIYVIDPEPCPDSDERKCCVECPPCPAPPVAGPSVFLFPPKPKDTLMISRTPEVTCVVVDVSHEDPEVQFNWYVDGVEVHNAKTKPREEQFNSTFRVVSVLTVVHQDWLNGKEYKCKVSNKGLPAPIEKTISKTKGQPREPQVYTLPPSREEMTKNQVSLTCLVKGFYPSDIAVEWESNGQPENNYKTTPPMLDSDGSFFLYSKLTVDKSRWQQGNVFSCSVMHEALHNHYTQKSLSLSPG	> 40	< 131	> 2	< 439
D23-IgG2 (Fc fusion) MHVAQPAVVLASSRGIASFVCEYSAPHNAAEIRVTVLRKAGSQVTEVCAMTYMKEDELTFLDDPSCTGTFSGNQVNLTIQGLRAADTGLYICKVELMYPPPYYLGLGNGTQIYVIDPEPCPDSDERKCCVECPPCPAPPVAGPSVFLFPPKPKDTLMISRTPEVTCVVVDVSHEDPEVQFNWYVDGVEVHNAKTKPREEQFNSTFRVVSVLTVVHQDWLNGKEYKCKVSNKGLPAPIEKTISKTKGQPREPQVYTLPPSREEMTKNQVSLTCLVKGFYPSDIAVEWESNGQPENNYKTTPPMLDSDGSFFLYSKLTVDKSRWQQGNVFSCSVMHEALHNHYTQKSLSLSPG	> 40	< 131	> 2	< 439
D5-IgG2 (Fc fusion) MHVAQPAVVLASSRGIASFVCEYASPGKATEVRVTVLRQADSQVTEVCAATYMMGDELTFLDDPICTGTFSGNQVNLTIQGLRAMDTGLYICKVELMYPPPYYLGIGNGTQIYVIDPEPCPDSDERKCCVECPPCPAPPVAGPSVFLFPPKPKDTLMISRTPEVTCVVVDVSHEDPEVQFNWYVDGVEVHNAKTKPREEQFNSTFRVVSVLTVVHQDWLNGKEYKCKVSNKGLPAPIEKTISKTKGQPREPQVYTLPPSREEMTKNQVSLTCLVKGFYPSDIAVEWESNGQPENNYKTTPPMLDSDGSFFLYSKLTVDKSRWQQGNVFSCSVMHEALHNHYTQKSLSLSPG	–	523 to 2650	–	439 to 1750
D6-IgG2 (Fc fusion) MHVAQPAVVLASSRGIASFVCEYASPGKATEIRVTVLRQADSQVTEVCAMTYMMGDELTFLDDPICTGTFSGNQVNLTIQGLRAMDTGLYICKVELMYPPPYYLGIGNGTQIYVIDPEPCPDSDERKCCVECPPCPAPPVAGPSVFLFPPKPKDTLMISRTPEVTCVVVDVSHEDPEVQFNWYVDGVEVHNAKTKPREEQFNSTFRVVSVLTVVHQDWLNGKEYKCKVSNKGLPAPIEKTISKTKGQPREPQVYTLPPSREEMTKNQVSLTCLVKGFYPSDIAVEWESNGQPENNYKTTPPMLDSDGSFFLYSKLTVDKSRWQQGNVFSCSVMHEALHNHYTQKSLSLSPG	–	523 to 2650	–	439 to 1750
D21-IgG2 (Fc fusion) MHVAQPAVVLASSRGIASFVCEYSAPHNADEIRVTVLRKASSQVTEVCAMTYMEEDELTFLDDPTCTGTFSGNQVNLTIQGLRAVDTGLYICKVELMYPPPYYLGFGNGTQIYVIDPEPCPDSDERKCCVECPPCPAPPVAGPSVFLFPPKPKDTLMISRTPEVTCVVVDVSHEDPEVQFNWYVDGVEVHNAKTKPREEQFNSTFRVVSVLTVVHQDWLNGKEYKCKVSNKGLPAPIEKTISKTKGQPREPQVYTLPPSREEMTKNQVSLTCLVKGFYPSDIAVEWESNGQPENNYKTTPPMLDSDGSFFLYSKLTVDKSRWQQGNVFSCSVMHEALHNHYTQKSLSLSPG	–	131 to 262	–	439 to 1750
D24-IgG2 (Fc fusion) MHVAQPAVVLASSRGIASFVCEYESPGKANEIRVTVLRKAGSQVTEVCAMTYMKEDELTFLDDPSCTGTFSGNQVNLTIQGLRAADTGLYICKVELMYPPPYYLGLGNGTQIYVIDPEPCPDSDERKCCVECPPCPAPPVAGPSVFLFPPKPKDTLMISRTPEVTCVVVDVSHEDPEVQFNWYVDGVEVHNAKTKPREEQFNSTFRVVSVLTVVHQDWLNGKEYKCKVSNKGLPAPIEKTISKTKGQPREPQVYTLPPSREEMTKNQVSLTCLVKGFYPSDIAVEWESNGQPENNYKTTPPMLDSDGSFFLYSKLTVDKSRWQQGNVFSCSVMHEALHNHYTQKSLSLSPG	> 40	< 131	–	439 to 1750

More lines, now with the values ahead:

Binding Avidity (Relative to Orencia) [1] [fold]	Kd [1] [pM]	Binding Avidity (Relative to Orencia) [2] [fold]	Kd [2] [pM]	Binder
> 40	< 131	–	439 to 1750	D3-76-IgG2 (Fc fusion) MHVAQPAVVLASSRGIASFVCEYASPGKANEVRVTVLRQADSQVTEVCAMTYMKEDELTFLDDPICTGTFSGNQVNLTIQGLRAMDTGLYICKVELMYPPPYYLGIGNGTQIYVIDPEPCPDSDERKCCVECPPCPAPPVAGPSVFLFPPKPKDTLMISRTPEVTCVVVDVSHEDPEVQFNWYVDGVEVHNAKTKPREEQFNSTFRVVSVLTVVHQDWLNGKEYKCKVSNKGLPAPIEKTISKTKGQPREPQVYTLPPSREEMTKNQVSLTCLVKGFYPSDIAVEWESNGQPENNYKTTPPMLDSDGSFFLYSKLTVDKSRWQQGNVFSCSVMHEALHNHYTQKSLSLSPG
–	523 to 2650	–	439 to 1750	D4-IgG2 (Fc fusion, also called clone D4) MHVAQPAVVLASSRGIASFVCEYSSPGKADEIRVTVLRQASSQVTEVCAMTYMEGDELTFLDDPTCTGTFSGNQVNLTIQGLRAVDTGLYICKVELMYPPPYYLGFGNGTQIYVIDPEPCPDSDERKCCVECPPCPAPPVAGPSVFLFPPKPKDTLMISRTPEVTCVVVDVSHEDPEVQFNWYVDGVEVHNAKTKPREEQFNSTFRVVSVLTVVHQDWLNGKEYKCKVSNKGLPAPIEKTISKTKGQPREPQVYTLPPSREEMTKNQVSLTCLVKGFYPSDIAVEWESNGQPENNYKTTPPMLDSDGSFFLYSKLTVDKSRWQQGNVFSCSVMHEALHNHYTQKSLSLSPG
–	131 to 262	–	439 to 1750	D20-IgG2 (Fc fusion) MHVAQPAVVLASSRGIASFVCEYESPHKATEIRVTVLRQADSQVTEVCAMTYMMEDELTFLDDPICTGTFSGNQVNLTIQGLRAMDTGLYICKVELMYPPPYYLGIGNGTQIYVIDPEPCPDSDERKCCVECPPCPAPPVAGPSVFLFPPKPKDTLMISRTPEVTCVVVDVSHEDPEVQFNWYVDGVEVHNAKTKPREEQFNSTFRVVSVLTVVHQDWLNGKEYKCKVSNKGLPAPIEKTISKTKGQPREPQVYTLPPSREEMTKNQVSLTCLVKGFYPSDIAVEWESNGQPENNYKTTPPMLDSDGSFFLYSKLTVDKSRWQQGNVFSCSVMHEALHNHYTQKSLSLSPG
